Experimental findings from patent publication US20160298117, “PEANUT-BINDING NUCLEIC ACID MOLECULE AND USE THEREOF” (NEC Solution Innovators, Ltd., published 2016) are described below.

Data set [1] has as its target T1, conarachin (heat-denatured, boiled 10 min) (Arachis hypogaea, UniProt P43238 P43238:26-626).
T1 sequence: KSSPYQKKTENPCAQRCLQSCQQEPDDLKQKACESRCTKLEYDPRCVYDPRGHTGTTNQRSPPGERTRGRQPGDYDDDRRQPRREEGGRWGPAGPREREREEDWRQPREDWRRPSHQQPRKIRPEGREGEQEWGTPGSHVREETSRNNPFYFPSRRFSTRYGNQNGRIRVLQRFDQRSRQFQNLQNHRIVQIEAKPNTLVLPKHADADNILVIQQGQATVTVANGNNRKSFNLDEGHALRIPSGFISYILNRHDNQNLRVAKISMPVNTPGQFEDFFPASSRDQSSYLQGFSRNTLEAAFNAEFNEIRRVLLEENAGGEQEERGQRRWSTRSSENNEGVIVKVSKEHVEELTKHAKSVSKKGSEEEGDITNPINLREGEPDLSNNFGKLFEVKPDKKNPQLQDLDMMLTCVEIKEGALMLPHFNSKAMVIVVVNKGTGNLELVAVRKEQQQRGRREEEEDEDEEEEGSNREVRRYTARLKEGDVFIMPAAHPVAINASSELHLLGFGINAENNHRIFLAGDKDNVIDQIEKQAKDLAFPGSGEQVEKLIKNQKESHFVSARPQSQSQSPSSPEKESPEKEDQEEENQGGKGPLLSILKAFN
In words: SPR; 3.125-50 nM; superior to undenatured. Particulars: tags: COSMO BIO CSB-CSB-NP003601PL. The protocol: (§1) First, as a sensor chip designed specifically for the ProteON, a streptavidin-immobilized chip (trade name: ProteOn NLC Sensor Chip, BioRad) was set in the ProteON XPR36. Biotinylated poly(dT) at 5 μmol/L was injected to a flow cell of the sensor chip using ultrapure water (DDW), and the binding was allowed to proceed until the signal intensity (RU: Resonance Unit) reached about 900 RU. The biotinylated poly(dT) was prepared by biotinylating the 5′ end of 24-mer deoxythymidine. Then, the poly(dA)-added aptamer at 1 μmol/L was injected to the flow cell of the chip using an SPR buffer at a flow rate of 25 μL/min for 80 seconds, and the binding was allowed to proceed until the signal intensity reached about 800 RU. […]
(§2) Samples were prepared by adjusting the undenatured conarachin to predetermined concentrations (10, 30, 100, 300, and 1000 nmol/L) and the heat-denatured conarachin to predetermined concentrations (3.125, 6.25, 12.5, 25, and 50 nmol/L). […] From the results of the above-described SPR analysis, the relative binding value was determined regarding the conarachin bound to the aptamer immobilized on the chip. The relative binding value was calculated as the ratio of the protein binding measured value to the aptamer immobilization measured value (the protein binding measured value/the aptamer immobilization measured value).
(SPR reads the build-up and loss of mass on a sensor chip optically.)

For another data set, the target named is T2, conarachin (undenatured) (Arachis hypogaea, UniProt P43238 P43238:26-626).
T2 sequence: T1 sequence
Kind of data set: SPR; 10-1000 nM conarachin. As to conditions: tags: COSMO BIO CSB-CSB-NP003601PL. Here is the method: as §1, §2

The target of data set [2] is beta-conglycinin (undenatured) (Glycine max, UniProt P0DO16;P11827;P25974 P0DO16:63-605,P11827:63-621,P25974:24-439). In words: SPR; little binding, 18.75-300 nM. Particulars: tags: Sigma C5868-5GM. The protocol: (§3) First, as a sensor chip designed specifically for the ProteON, a streptavidin-immobilized chip (trade name: ProteOn NLC Sensor Chip, BioRad) was set in the ProteON XPR36. Biotinylated poly(dT) at 5 μmol/L was injected to a flow cell of the sensor chip using ultrapure water (DDW), and the binding was allowed to proceed until the signal intensity (RU: Resonance Unit) reached about 900 RU. The biotinylated poly(dT) was prepared by biotinylating the 5′ end of 24-mer deoxythymidine. Then, the poly(dA)-added aptamer at 1 μmol/L was injected to the flow cell of the chip using an SPR buffer at a flow rate of 25 μL/min for 80 seconds, and the binding was allowed to proceed until the signal intensity reached about 800 RU. […] Subsequently, the sample was injected using the SPR buffer at a flow rate of 50 μL/min for 120 seconds, followed by washing performed by flowing the SPR buffer under the same conditions. Signal intensity measurement was performed concurrently with the injection of the sample and the washing with the SPR buffer.
beta-conglycinin (undenatured), sequence (P0DO16 63-605, chain 1 of 3): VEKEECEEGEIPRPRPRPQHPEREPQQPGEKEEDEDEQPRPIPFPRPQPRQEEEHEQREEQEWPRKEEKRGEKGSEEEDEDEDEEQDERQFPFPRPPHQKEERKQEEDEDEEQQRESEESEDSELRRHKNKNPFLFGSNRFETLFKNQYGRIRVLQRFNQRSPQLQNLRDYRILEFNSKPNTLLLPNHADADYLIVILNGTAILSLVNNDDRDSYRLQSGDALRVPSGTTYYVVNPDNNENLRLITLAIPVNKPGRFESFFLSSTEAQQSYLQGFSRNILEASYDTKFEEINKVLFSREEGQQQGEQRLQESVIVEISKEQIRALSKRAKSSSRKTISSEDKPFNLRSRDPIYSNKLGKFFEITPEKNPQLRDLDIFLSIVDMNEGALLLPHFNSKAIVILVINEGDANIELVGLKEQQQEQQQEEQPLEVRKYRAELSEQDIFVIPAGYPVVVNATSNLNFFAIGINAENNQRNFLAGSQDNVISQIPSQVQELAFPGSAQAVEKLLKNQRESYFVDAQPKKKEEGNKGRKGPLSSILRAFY
beta-conglycinin (undenatured), sequence (P11827 63-621, chain 2 of 3): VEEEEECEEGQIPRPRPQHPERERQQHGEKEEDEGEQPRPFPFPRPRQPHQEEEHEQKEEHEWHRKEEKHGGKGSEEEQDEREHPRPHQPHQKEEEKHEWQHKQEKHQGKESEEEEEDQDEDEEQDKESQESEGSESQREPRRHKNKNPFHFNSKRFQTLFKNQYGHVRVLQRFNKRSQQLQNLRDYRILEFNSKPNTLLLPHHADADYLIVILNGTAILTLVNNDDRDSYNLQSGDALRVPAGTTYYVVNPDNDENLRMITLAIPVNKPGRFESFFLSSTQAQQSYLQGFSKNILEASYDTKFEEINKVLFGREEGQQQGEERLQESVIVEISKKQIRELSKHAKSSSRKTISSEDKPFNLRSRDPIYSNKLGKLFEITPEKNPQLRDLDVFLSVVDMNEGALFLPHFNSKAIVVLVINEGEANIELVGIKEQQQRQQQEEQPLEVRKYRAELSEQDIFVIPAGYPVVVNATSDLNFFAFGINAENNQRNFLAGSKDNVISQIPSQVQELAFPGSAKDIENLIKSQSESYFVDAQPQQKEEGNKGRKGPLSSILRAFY
beta-conglycinin (undenatured), sequence (P25974 24-439, chain 3 of 3): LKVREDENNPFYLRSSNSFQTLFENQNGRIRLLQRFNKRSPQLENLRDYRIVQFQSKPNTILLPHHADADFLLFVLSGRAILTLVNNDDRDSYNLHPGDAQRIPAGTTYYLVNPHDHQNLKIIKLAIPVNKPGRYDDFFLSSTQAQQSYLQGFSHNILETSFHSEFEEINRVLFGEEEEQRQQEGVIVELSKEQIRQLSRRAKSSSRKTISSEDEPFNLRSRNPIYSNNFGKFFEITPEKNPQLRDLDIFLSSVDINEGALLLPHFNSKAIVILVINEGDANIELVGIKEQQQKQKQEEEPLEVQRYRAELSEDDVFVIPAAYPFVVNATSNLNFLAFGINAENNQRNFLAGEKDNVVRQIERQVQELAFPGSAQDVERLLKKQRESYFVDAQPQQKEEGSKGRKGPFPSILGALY
The concentrations of the β-conglycinin were set to 18.75, 37.5, 75, 150, and 300 nmol/L, and the protein concentrations in the soybean samples were set to 1, 3, 10, 30, and 100 ppm. The SPR analysis was performed in the same manner as in Example 1, except that these samples were used. Then, from the results of the above-described SPR analysis, the relative binding value was determined regarding the proteins in each peanut sample bound to the aptamer immobilized on the chip. The relative binding value was calculated as the ratio of the protein binding measured value to the aptamer immobilization measured value (the protein binding measured value/the aptamer immobilization measured value).

Data set [3] concerns the target beta-conglycinin (heat-denatured, boiled 10 min) (Glycine max, UniProt P0DO16;P11827;P25974 P0DO16:63-605,P11827:63-621,P25974:24-439). Kind of data set: SPR; little binding, 18.75-300 nM. Particulars: tags: Sigma C5868-5GM. Here is the method: as §3, with “Biotinylated” for “First, as a sensor chip designed specifically for the ProteON, a streptavidin-immobilized chip (trade name: ProteOn NLC Sensor Chip, BioRad) was set in the ProteON XPR36. Biotinylated”
As soybean allergen samples, undenatured β-conglycinin, heat-denatured β-conglycinin, undenatured soybean proteins, and heat-denatured soybean proteins were provided. A commercially available product (Sigma, trade name β-conglycinin from Glycine max (soybean), C5868-5GM) was used as the undenatured β-conglycinin. The heat-denatured β-conglycinin was prepared by boiling the undenatured β-conglycinin for 10 minutes and then collecting a supernatant fraction. As the undenatured soybean proteins and the heat-denatured soybean proteins, the undenatured soybean sample and the heat-denatured soybean sample in Example 1 were used.
The concentrations of the β-conglycinin were set to 18.75, 37.5, 75, 150, and 300 nmol/L, and the protein concentrations in the soybean samples were set to 1, 3, 10, 30, and 100 ppm. The SPR analysis was performed in the same manner as in Example 1, except that these samples were used. Then, from the results of the above-described SPR analysis, the relative binding value was determined regarding the proteins in each peanut sample bound to the aptamer immobilized on the chip.

The target of data set [4] is T3, Ara h1 (heat-denatured, purified from parboiled peanut) (Arachis hypogaea, UniProt P43238 P43238:26-626).
T3 sequence: T1 sequence
Kind of data set: SPR; 6.25-100 nM Ara h1. As to conditions: tags: INDOOR biotechnologies NA-AH1-1. The protocol: as §1
Samples were prepared by adjusting the Ara h1 used in Example 2 to predetermined concentrations (6.25, 12.5, 25, 50, and 100 nmol/L). […] From the results of the above-described SPR analysis, the relative binding value was determined regarding the Ara h1 bound to the aptamer immobilized on the chip. The relative binding value was calculated as the ratio of the protein binding measured value to the aptamer immobilization measured value (the protein binding measured value/the aptamer immobilization measured value).

beta-conglycinin (heat-denatured, boiled 10 min), sequence (P0DO16 63-605, chain 1 of 3): as the sequence (P0DO16 63-605, chain 1 of 3) above
beta-conglycinin (heat-denatured, boiled 10 min), sequence (P11827 63-621, chain 2 of 3): as the sequence (P11827 63-621, chain 2 of 3) above
beta-conglycinin (heat-denatured, boiled 10 min), sequence (P25974 24-439, chain 3 of 3): as the sequence (P25974 24-439, chain 3 of 3) above

B1: P_NES02 (CONA161R8m1s31) (ssDNA)
DNA: GAATCCGCGGGGTAGCGGTGGCGAGCGATTCAAAAAAAAAAAAAAAAAAAAAAAA
Consider B1, for which the binding result was “binds” in data set [1]; “binds” with conarachin (undenatured); “no binding” in data set [2]; “no binding” in data set [3]; “binds” in data set [4].
